One data set addresses T1, MBP-TAp63αR (Mus musculus, UniProt O88898 40-680, R318H).
T1 sequence: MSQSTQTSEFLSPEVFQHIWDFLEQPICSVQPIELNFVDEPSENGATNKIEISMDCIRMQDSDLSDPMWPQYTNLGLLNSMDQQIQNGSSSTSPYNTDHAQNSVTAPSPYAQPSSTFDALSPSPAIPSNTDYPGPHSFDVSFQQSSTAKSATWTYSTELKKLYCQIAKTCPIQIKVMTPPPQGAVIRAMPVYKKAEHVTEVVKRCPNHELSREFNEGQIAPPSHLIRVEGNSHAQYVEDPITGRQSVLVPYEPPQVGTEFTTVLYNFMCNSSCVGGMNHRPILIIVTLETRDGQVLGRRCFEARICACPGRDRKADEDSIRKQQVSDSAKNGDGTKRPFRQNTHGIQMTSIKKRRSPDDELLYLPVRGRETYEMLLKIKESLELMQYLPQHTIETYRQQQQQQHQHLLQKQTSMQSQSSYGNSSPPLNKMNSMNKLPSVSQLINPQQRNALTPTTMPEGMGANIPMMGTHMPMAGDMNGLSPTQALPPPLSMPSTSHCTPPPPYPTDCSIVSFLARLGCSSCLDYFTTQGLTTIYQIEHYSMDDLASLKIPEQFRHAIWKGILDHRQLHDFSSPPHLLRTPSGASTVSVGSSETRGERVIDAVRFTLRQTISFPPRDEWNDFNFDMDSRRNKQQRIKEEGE
As to the kind of experiment: fluorescence anisotropy; 300 nM DNA; 10 mM potassium phosphate pH 7.6, 200 mM NaCl, room temperature, 30 min; 15 nM p21 DNA (300 nM for controls), protein 0.1-15 µM monomer. Particulars: protein: recombinant; tags: N-term MBP; C-term His6; chain copies: 4; label: 5'-fluorescein. On the technique in general: In fluorescence polarisation assays a small probe gives low polarisation when free and higher when bound to something large.

The target in data set [1] is T2, MBP-TAp63α (Mus musculus, UniProt O88898 40-680).
T2 sequence: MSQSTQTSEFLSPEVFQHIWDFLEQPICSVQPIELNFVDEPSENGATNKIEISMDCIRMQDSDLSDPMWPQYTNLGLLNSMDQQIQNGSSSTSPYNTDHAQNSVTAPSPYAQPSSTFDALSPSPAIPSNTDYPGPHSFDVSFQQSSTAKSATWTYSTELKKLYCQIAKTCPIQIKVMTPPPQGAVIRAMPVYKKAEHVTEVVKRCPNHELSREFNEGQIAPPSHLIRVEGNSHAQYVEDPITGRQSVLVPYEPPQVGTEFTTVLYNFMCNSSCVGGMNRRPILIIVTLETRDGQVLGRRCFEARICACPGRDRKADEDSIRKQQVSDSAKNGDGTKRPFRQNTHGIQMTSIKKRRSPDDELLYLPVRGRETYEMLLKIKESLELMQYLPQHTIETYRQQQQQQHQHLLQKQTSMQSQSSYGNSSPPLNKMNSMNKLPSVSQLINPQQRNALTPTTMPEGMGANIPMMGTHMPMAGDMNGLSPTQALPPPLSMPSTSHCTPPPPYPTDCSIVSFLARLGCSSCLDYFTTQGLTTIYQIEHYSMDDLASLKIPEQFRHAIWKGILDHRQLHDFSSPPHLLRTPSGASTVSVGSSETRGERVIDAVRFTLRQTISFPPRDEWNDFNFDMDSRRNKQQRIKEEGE
The data set is described as above. As to conditions: protein: recombinant; tags: N-term MBP; C-term His6; chain copies: 2; label: 5'-fluorescein.

For data set [2], the target named is T2, MBP-TAp63α. As to the kind of experiment: fluorescence anisotropy; two-site fit, monomer concentration; second-site KD negative, uninterpreted; 10 mM potassium phosphate pH 7.6, 200 mM NaCl, room temperature, 30 min; 15 nM p21 DNA (300 nM for controls), protein 0.1-15 µM monomer. Particulars: protein: recombinant; tags: N-term MBP; C-term His6; chain copies: 2; label: 5'-fluorescein.

As usually defined, the Kd is the concentration at which binding is half-saturated.

B1: SELEX-based p63 binding sequence (dsDNA)
DNA 1: CCTATTCTAGACATGTGAGGACATGTCGATACTTATTCC
DNA 2: GGAATAAGTATCGACATGTCCTCACATGTCTAGAATAGG
Regarding B1, the binding result in the data set with MBP-TAp63αR was “no binding”.

B2: random sequence (dsDNA)
DNA 1: CGAGTTGTAAGTCGAATTGATACCATAATGCACTACACG
DNA 2: CGTGTAGTGCATTATGGTATCAATTCGACTTACAACTCG
Regarding B2, the binding result with MBP-TAp63αR and in the data set with MBP-TAp63α [1] was “no binding” throughout.

B3: p21 promoter response element (dsDNA)
DNA 1: GGCAGGAACATGTCCCAACATGTTGAGCCG
DNA 2: CGGCTCAACATGTTGGGACATGTTCCTGCC
Take B3: the Kd with MBP-TAp63α [2] was 7.51 ± 1.32 µM.
